Experimental data taken from the supplement of paper PMC9233669.
Variants at the floor of the assay were thinned out.

How the values were obtained:
biotinyl-Trp-oxazolone = experiment: self-aminoacylation, catalytic enhancement (BWO) (fold over background); higher = more active; k-Seq, kA / k0A0; sequences stand for … in GGGAAUGGAUCCACAUCUACGAAUUC…UUCACUGCAGACUUGACGAAGCUG
In short: (§1)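 Mutagenized RNA pools with a 21-nt variable region (0.43 μM) reacted with each biotinyl-aminoacyl-oxazolone at 2–1250 μM. Reactions ran in 50 μL HEPES/NaCl/KCl/MgCl2/CaCl2 buffer with 5% acetonitrile, pH 6.9–7.0, for 90 minutes at room temperature. Streptavidin-captured RNA was quantified by triplicate qPCR and Illumina sequencing, and per-sequence fraction reacted was fit to a pseudo-first-order model with 1000 bootstraps. Catalytic enhancement is median kA divided by the uncatalyzed rate, the low-activity peak of a bimodal Gaussian fit.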

biotinyl-Phe-oxazolone = experiment: self-aminoacylation, catalytic enhancement (BFO) (fold over background); higher = more active; k-Seq, kA / k0A0; sequences stand for … in GGGAAUGGAUCCACAUCUACGAAUUC…UUCACUGCAGACUUGACGAAGCUG
In short: as §1

biotinyl-Leu-oxazolone = experiment: self-aminoacylation, catalytic enhancement (BLO) (fold over background); higher = more active; k-Seq, kA / k0A0; sequences stand for … in GGGAAUGGAUCCACAUCUACGAAUUC…UUCACUGCAGACUUGACGAAGCUG
In short: as §1

| Sequence | self-aminoacylation (biotinyl-Trp-oxazolone) | self-aminoacylation (biotinyl-Phe-oxazolone) | self-aminoacylation (biotinyl-Leu-oxazolone) |
| --- | --- | --- | --- |
| AAGUAUGCUAAUAGUCGUAAG [Fam3.1 aminoacylation ribozyme variant] | 8.96 | 33.1 | – |
| AAGUCGGCUAAUAGUCGCAAG [Fam3.1 aminoacylation ribozyme variant] | 4.2 | 9.73 | – |
| AAGUGUGCUAAUAGUCGGAAG [Fam3.1 aminoacylation ribozyme variant] | 3.96 | 11 | – |
| AAGUUCGCUAAUAGUCGUAAG [Fam3.1 aminoacylation ribozyme variant] | 4.33 | 13.7 | – |
| AAGUUGGCUAAUAGUCGCAAA [Fam3.1 aminoacylation ribozyme variant] | 2.03 | 2.83 | – |
| AAGUUUGAUUAUAGUCGCAAG [Fam3.1 aminoacylation ribozyme variant] | 2.07 | 2.29 | – |
| AAGUUUGCUAAUAGUCGCGAA [Fam3.1 aminoacylation ribozyme variant] | 3.37 | 6.39 | – |
| AAGUUUGCUCAUAGUCGUAAG [Fam3.1 aminoacylation ribozyme variant] | 3.67 | 14.6 | – |
| ACACACUUCAAGUAAUCGGUC [Fam1B.1 aminoacylation ribozyme variant] | 6 | 7.88 | – |
| ACAUACUUCAAGCAAUCGGUC [Fam1B.1 aminoacylation ribozyme variant] | 5.65 | 10.3 | – |
| AGGUAUGCUAAUAGUCGCAAG [Fam3.1 aminoacylation ribozyme variant] | 3.41 | 9.64 | – |
| AUAAUUCAAACAAUCGGUCUG [Fam1A.1 aminoacylation ribozyme variant] | 2.97 | 4.88 | – |
| AUUACCCUGGCCGUCGAGUGA [Fam2.1 aminoacylation ribozyme variant] | 2.4 | 2.1 | – |
| AUUCACCUAGGUCAUCUGGCG [Fam2.2 aminoacylation ribozyme variant] | – | – | 2.88 |
| AUUCACCUAGGUUAUCGGGUU [Fam2.2 aminoacylation ribozyme variant] | 2.04 | 5.07 | – |
| CAAAACUUCAAGCAAUCGGUC [Fam1B.1 aminoacylation ribozyme variant] | 10.6 | 15.2 | – |
| CCAAACUUCAAGGAAUCGGUC [Fam1B.1 aminoacylation ribozyme variant] | 5.42 | 5.98 | – |
| CCAAUCUUCAAGCAAUCGGUC [Fam1B.1 aminoacylation ribozyme variant] | 10.7 | 18.1 | – |
| CCACAAUUCAAUCAAUCGGUC [Fam1B.1 aminoacylation ribozyme variant] | 5.08 | 10.8 | – |
| CCACACUCCAAUCAAUCGGUC [Fam1B.1 aminoacylation ribozyme variant] | 3.48 | 5.95 | – |
| CCACACUUCAAAAAAUCGGUC [Fam1B.1 aminoacylation ribozyme variant] | 14.5 | 18.2 | – |

| Sequence | self-aminoacylation (biotinyl-Trp-oxazolone) | self-aminoacylation (biotinyl-Phe-oxazolone) | self-aminoacylation (biotinyl-Leu-oxazolone) |
| --- | --- | --- | --- |
| CCACACUUCAACAAAUCGGUC [Fam1B.1 aminoacylation ribozyme variant] | 7.95 | 11.5 | – |
| CCACACUUCAAGGAAUCGGUC [Fam1B.1 aminoacylation ribozyme variant] | 6.13 | 8.21 | – |
| CCACACUUGAAGCAUUCGGUC [Fam1B.1 aminoacylation ribozyme variant] | 2.09 | 3.66 | – |
| CCACAGUUCAAGCAAUCGGUC [Fam1B.1 aminoacylation ribozyme variant] | 3.69 | 5.12 | – |
| CCACCUCAAACAAUCGGUCUG [Fam1A.1 aminoacylation ribozyme variant] | 4.25 | 4.25 | – |
| CCACUCUUCAACCAAUCGGUC [Fam1B.1 aminoacylation ribozyme variant] | 27 | 45.7 | – |
| CCACUCUUCAAGCAAUCAGUC [Fam1B.1 aminoacylation ribozyme variant] | 2.76 | 8.2 | – |
| CCCUACUUCAAGCAAUCGGUC [Fam1B.1 aminoacylation ribozyme variant] | 33.8 | 73.5 | – |
| CGACCUCAAACAAUCGGUCUG [Fam1A.1 aminoacylation ribozyme variant] | 4.64 | 3.54 | – |
| CGACUUCAAAUAAUCGGUCUG [Fam1A.1 aminoacylation ribozyme variant] | 14.6 | 16.2 | – |
| CGAGACUUCAAGCAAUCGGUC [Fam1B.1 aminoacylation ribozyme variant] | 4.16 | 5.77 | – |
| CUACACUUCAAGAAAUCGGUC [Fam1B.1 aminoacylation ribozyme variant] | 5.31 | 8.72 | – |
| CUACCUCCAACAAUCGGUCUG [Fam1A.1 aminoacylation ribozyme variant] | 3.94 | 4.71 | – |
| CUACGUCAAACAAUCGGUGUG [Fam1A.1 aminoacylation ribozyme variant] | – | – | 2.02 |
| CUACUUCAAACAAUCGGGCUG [Fam1A.1 aminoacylation ribozyme variant] | 9.43 | 13.2 | – |
| CUACUUCAAACAAUCGGUCGG [Fam1A.1 aminoacylation ribozyme variant] | 17.3 | 27.4 | – |
| CUACUUCAAACAAUCGGUCUA [Fam1A.1 aminoacylation ribozyme variant] | 10 | 24.5 | – |
| CUACUUCAAAUAAUCGGUCUC [Fam1A.1 aminoacylation ribozyme variant] | 7.99 | 15.6 | – |
| CUACUUCAACCAAUCGGUCAG [Fam1A.1 aminoacylation ribozyme variant] | 3.33 | 6.18 | – |
| CUACUUCAACCAAUCGGUCUA [Fam1A.1 aminoacylation ribozyme variant] | 7 | 11.9 | – |
| CUACUUCAAGCAAUCGGUCCG [Fam1A.1 aminoacylation ribozyme variant] | 3.02 | 3.44 | – |

| Sequence | self-aminoacylation (biotinyl-Trp-oxazolone) | self-aminoacylation (biotinyl-Phe-oxazolone) | self-aminoacylation (biotinyl-Leu-oxazolone) |
| --- | --- | --- | --- |
| CUACUUCAAGCAAUCGGUCUA [Fam1A.1 aminoacylation ribozyme variant] | 4.06 | 7.64 | – |
| CUACUUCAAGCAAUCGGUCUC [Fam1A.1 aminoacylation ribozyme variant] | 6.61 | 11.4 | – |
| CUACUUCAAUCAAUCGGACUG [Fam1A.1 aminoacylation ribozyme variant] | 4.18 | 8.24 | – |
| CUACUUCAAUCAAUCGGUCAG [Fam1A.1 aminoacylation ribozyme variant] | 3.51 | 7.4 | – |
| CUACUUCAAUCAAUCGGUCCG [Fam1A.1 aminoacylation ribozyme variant] | 4.75 | 6.48 | – |
| CUACUUCAAUCAAUCGGUCUC [Fam1A.1 aminoacylation ribozyme variant] | 14.9 | 25.9 | – |
| CUAGUUCAAACAAUCAGUCUG [Fam1A.1 aminoacylation ribozyme variant] | 2.15 | 5.02 | – |
| CUAGUUCAAACAAUCGGUCGG [Fam1A.1 aminoacylation ribozyme variant] | 2.94 | 4.12 | – |
| CUAUUUCAAUCAAUCGGUCUG [Fam1A.1 aminoacylation ribozyme variant] | 3.72 | 6.36 | – |
| CUCAUUCAAACAAUCGGUCUG [Fam1A.1 aminoacylation ribozyme variant] | 7.42 | 11.7 | – |
| CUCCUUCAAACAAUCGGGCUG [Fam1A.1 aminoacylation ribozyme variant] | 14.4 | 15.1 | – |
| CUCCUUCAAACAAUCGGUCUU [Fam1A.1 aminoacylation ribozyme variant] | 16.3 | 25.4 | – |
| CUGCUCCAAACAAUCGGUCUG [Fam1A.1 aminoacylation ribozyme variant] | 20.3 | 27 | – |
| CUGCUUCAAUCAAUCGGUCUG [Fam1A.1 aminoacylation ribozyme variant] | 26.8 | 44.2 | – |
| GUACUUCAAACAAUCAGUCUG [Fam1A.1 aminoacylation ribozyme variant] | 10.3 | 19.3 | – |
| UAACACUUCAAGCAAUCGGUC [Fam1B.1 aminoacylation ribozyme variant] | 13.3 | 25.6 | – |
| UAGUUUGCUAACAGUCGCAAG [Fam3.1 aminoacylation ribozyme variant] | 3.08 | 5.84 | – |
| UCACACUUCAAGCAAUCGGCC [Fam1B.1 aminoacylation ribozyme variant] | 4 | 4.64 | – |
| UUACUUCAACCAAUCGGUCUG [Fam1A.1 aminoacylation ribozyme variant] | 11.2 | 16.2 | – |
